Data: the supplement of paper PMC11246515
± gives the standard deviation of the averaged measurements.

Experiment: total protein half-life in vivo (active degradation + dilution); higher = more stable protein
[1] = E. coli NCM3722 delta-clpP delta-lon delta-hslV, growth: N-lim chemostat, doubling time 6 h
[2] = E. coli NCM3722 delta-clpP, growth: N-lim chemostat, doubling time 6 h
[3] = E. coli NCM3722 delta-hslV, growth: N-lim chemostat, doubling time 6 h
[4] = E. coli NCM3722 delta-lon, growth: N-lim chemostat, doubling time 6 h
[5] = E. coli NCM3722 delta-smpB, growth: N-lim chemostat, doubling time 6 h
[6] = wild type E. coli NCM3722, growth: C-lim chemostat, doubling time 3 h
[7] = wild type E. coli NCM3722, growth: C-lim chemostat, doubling time 6 h
[8] = wild type E. coli NCM3722, growth: C-lim chemostat, doubling time 12 h
[9] = wild type E. coli NCM3722, growth: N-lim chemostat, doubling time 6 h
[10] = wild type E. coli NCM3722, growth: N-lim chemostat, doubling time 12 h
[11] = wild type E. coli NCM3722, growth: P-lim chemostat, doubling time 6 h
[12] = wild type E. coli NCM3722, growth: P-lim chemostat, doubling time 12 h

Sequence: MTRTNLITGFLGSGKTTSILHLLAHKDPNEKWAVLVNEFGEVGIDGALLADSGALLKEIPGGCMCCVNGLPMQVGLNTLLRQGKPDRLLIEPTGLGHPKQILDLLTAPVYEPWIDLRATLCILDPRLLLDEKSASNENFRDQLAAADIIVANKSDRTTPESEQALQRWWQQNGGDRQLIHSEHGKVDGHLLDLPRRNLAELPASAAHSHQHVVKKGLAALSLPEHQRWRRSLNSGQGYQACGWIFDADTVFDTIGILEWARLAPVERVKGVLRIPEGLVRINRQGDDLHIETQNVAPPDSRIELISSSEADWNALQSALLKLRLATTA
- total protein half-life in vivo [1]: 4.59 ± 0.6 h
- total protein half-life in vivo [2]: 4.12 ± 0.58 h
- total protein half-life in vivo [3]: 3.4 ± 0.12 h
- total protein half-life in vivo [4]: 3.83 ± 0.31 h
- total protein half-life in vivo [5]: 3.47 ± 0.083 h
- total protein half-life in vivo [6]: 2.66 ± 0.31 h
- total protein half-life in vivo [7]: 5.66 ± 0.057 h
- total protein half-life in vivo [8]: 9.04 ± 0.88 h
- total protein half-life in vivo [9]: 3.47 ± 0.12 h
- total protein half-life in vivo [10]: 5.62 ± 0.064 h
- total protein half-life in vivo [11]: 5.197 ± 0.035 h
- total protein half-life in vivo [12]: 9.17 ± 0.28 h

Sequence: MTSENPLLALREKISALDEKLLALLAERRELAVEVGKAKLLSHRPVRDIDRERDLLERLITLGKAHHLDAHYITRLFQLIIEDSVLTQQALLQQHLNKINPHSARIAFLGPKGSYSHLAARQYAARHFEQFIESGCAKFADIFNQVETGQADYAVVPIENTSSGAINDVYDLLQHTSLSIVGEMTLTIDHCLLVSGTTDLSTINTVYSHPQPFQQCSKFLNRYPHWKIEYTESTSAAMEKVAQAKSPHVAALGSEAGGTLYGLQVLERIEANQRQNFTRFVVLARKAINVSDQVPAKTTLLMATGQQAGALVEALLVLRNHNLIMTRLESRPIHGNPWEEMFYLDIQANLESAEMQKALKELGEITRSMKVLGCYPSENVVPVDPT [P0A9J8]
- total protein half-life in vivo [1]: 5.3 ± 1.8 h
- total protein half-life in vivo [2]: 4.03 ± 0.25 h
- total protein half-life in vivo [3]: 4.9 ± 1.2 h
- total protein half-life in vivo [4]: 4.67 ± 0.14 h
- total protein half-life in vivo [5]: 4.1437 ± 0.0033 h
- total protein half-life in vivo [6]: 2.62 ± 0.6 h
- total protein half-life in vivo [7]: 5.375 ± 0.04 h
- total protein half-life in vivo [8]: 11 ± 0.42 h
- total protein half-life in vivo [9]: 4.129 ± 0.037 h
- total protein half-life in vivo [10]: 6.55 ± 0.09 h
- total protein half-life in vivo [11]: 5.88 ± 0.58 h
- total protein half-life in vivo [12]: 11.77 ± 0.076 h

Sequence: MTSLVVPGLDTLRQWLDDLGMSFFECDNCQALHLPHMQNFDGVFDAKIDLIDNTILFSAMAEVRPSAVLPLAADLSAINASSLTVKAFLDMQDDNLPKLVVCQSLSVMQGVTYEQFAWFVRQSEEQISMVILEANAHQLLLPTDDEGQNNVTENYFLH [P0AAY6]
- total protein half-life in vivo [1]: 2.64 ± 2.3 h
- total protein half-life in vivo [3]: 2.7 h
- total protein half-life in vivo [4]: 4.39 h
- total protein half-life in vivo [5]: 1.74 ± 1.4 h
- total protein half-life in vivo [8]: 1.21 h
- total protein half-life in vivo [9]: 0.868 h

Sequence: MTSSLPCGQTSLLLQMTERLALSDAHFRRISQLIYQRAGIVLADHKRDMVYNRLVRRLRSLGLTDFGHYLNLLESNQHSGEWQAFINSLTTNLTAFFREAHHFPLLADHARRRSGEYRVWSAAASTGEEPYSIAMTLADTLGTAPGRWKVFASDIDTEVLEKARSGIYRHEELKNLTPQQLQRYFMRGTGPHEGLVRVRQELANYVDFAPLNLLAKQYTVPGPFDAIFCRNVMIYFDQTTQQEILRRFVPLLKPDGLLFAGHSENFSHLERRFTLRGQTVYALSKD
- total protein half-life in vivo [2]: 6.56 h
- total protein half-life in vivo [6]: 1.34 h
- total protein half-life in vivo [8]: 3.42 h

Sequence: MTSSYLHFPEFDPVIFSIGPVALHWYGLMYLVGFIFAMWLATRRANRPGSGWTKNEVENLLYAGFLGVFLGGRIGYVLFYNFPQFMADPLYLFRVWDGGMSFHGGLIGVIVVMIIFARRTKRSFFQVSDFIAPLIPFGLGAGRLGNFINGELWGRVDPNFPFAMLFPGSRTEDILLLQTNPQWQSIFDTYGVLPRHPSQLYELLLEGVVLFIILNLYIRKPRPMGAVSGLFLIGYGAFRIIVEFFRQPDAQFTGAWVQYISMGQILSIPMIVAGVIMMVWAYRRSPQQHVS
- total protein half-life in vivo [1]: > 8 h
- total protein half-life in vivo [4]: 7.73 h
- total protein half-life in vivo [9]: 6.89 ± 0.72 h
- total protein half-life in vivo [11]: 6.28 ± 0.24 h
- total protein half-life in vivo [12]: 11.5 ± 0.95 h

Sequence: MTTLSCKVTSVEAITDTVYRVRIVPDAAFSFRAGQYLMVVMDERDKRPFSMASTPDEKGFIELHIGASEINLYAKAVMDRILKDHQIVVDIPHGEAWLRDDEERPMILIAGGTGFSYARSILLTALARNPNRDITIYWGGREEQHLYDLCELEALSLKHPGLQVVPVVEQPEAGWRGRTGTVLTAVLQDHGTLAEHDIYIAGRFEMAKIARDLFCSERNAREDRLFGDAFAFI [P0AEN1]
- total protein half-life in vivo [1]: 5.7 ± 0.93 h
- total protein half-life in vivo [2]: 4.72 ± 0.087 h
- total protein half-life in vivo [3]: 4.19 ± 0.12 h
- total protein half-life in vivo [4]: 4.62 ± 0.48 h
- total protein half-life in vivo [5]: 4.21 ± 0.8 h
- total protein half-life in vivo [6]: 2.74 ± 0.19 h
- total protein half-life in vivo [7]: 5.78 ± 0.43 h
- total protein half-life in vivo [8]: 8.71 ± 1.9 h
- total protein half-life in vivo [9]: 4.2 ± 0.26 h
- total protein half-life in vivo [10]: 7.18 ± 0.22 h
- total protein half-life in vivo [11]: 4.62 ± 1 h
- total protein half-life in vivo [12]: 9.49 ± 0.3 h

Sequence: MTTLTAQQIACVYAWLAQLFSRELDDEQLTQIASAQMAEWFSLLKSEPPLTAAVNELENRIATLTVRDDARLELAADFCGLFLMTDKQAALPYASAYKQDEQEIKRLLVEAGMETSGNFNEPADHLAIYLELLSHLHFSLGEGTVPARRIDSLRQKTLTALWQWLPEFVARCRQYDSFGFYAALSQLLLVLVECDHQNR
- total protein half-life in vivo [1]: 5.85 h
- total protein half-life in vivo [7]: 4.24 h
- total protein half-life in vivo [12]: 9.47 ± 1.7 h

Sequence: MTTNTHTLQIEEILELLPHRFPFLLVDRVLDFEEGRFLRAVKNVSVNEPFFQGHFPGKPIFPGVLILEAMAQATGILAFKSVGKLEPGELYYFAGIDEARFKRPVVPGDQMIMEVTFEKTRRGLTRFKGVALVDGKVVCEATMMCARSREA [P0A6Q6]
- total protein half-life in vivo [1]: 5.67 ± 0.36 h
- total protein half-life in vivo [4]: 5.38 ± 0.24 h
- total protein half-life in vivo [5]: 5.504 ± 0.036 h
- total protein half-life in vivo [6]: 2.86 ± 0.45 h
- total protein half-life in vivo [7]: 6.1 ± 0.81 h
- total protein half-life in vivo [8]: 11.2 ± 0.12 h
- total protein half-life in vivo [9]: 6.23 ± 0.6 h
- total protein half-life in vivo [10]: 11.9 ± 0.43 h
- total protein half-life in vivo [11]: 5.75 ± 0.8 h
- total protein half-life in vivo [12]: 13.4 ± 0.14 h

Sequence: MTTNTVSRKVAWLRVVTLAVAAFIFNTTEFVPVGLLSDIAQSFHMQTAQVGIMLTIYAWVVALMSLPFMLMTSQVERRKLLICLFVVFIASHVLSFLSWSFTVLVISRIGVAFAHAIFWSITASLAIRMAPAGKRAQALSLIATGTALAMVLGLPLGRIVGQYFGWRMTFFAIGIGALITLLCLIKLLPLLPSEHSGSLKSLPLLFRRPALMSIYLLTVVVVTAHYTAYSYIEPFVQNIAGFSANFATALLLLLGGAGIIGSVIFGKLGNQYASALVSTAIALLLVCLALLLPAANSEIHLGVLSIFWGIAMMIIGLGMQVKVLALAPDATDVAMALFSGIFNIGIGAGALVGNQVSLHWSMSMIGYVGAVPAFAALIWSIIIFRRWPVTLEEQTQ
- total protein half-life in vivo [1]: 5.1 ± 0.12 h
- total protein half-life in vivo [2]: 4.77 h
- total protein half-life in vivo [3]: 4.16 h
- total protein half-life in vivo [5]: 4.997 ± 0.0071 h
- total protein half-life in vivo [9]: 4.68 h
- total protein half-life in vivo [10]: 7.998 ± 0.022 h
- total protein half-life in vivo [11]: 5.12 ± 0.23 h
- total protein half-life in vivo [12]: 8.61 ± 0.96 h

Sequence: MTTPLKKIVIVGGGAGGLEMATQLGHKLGRKKKAKITLVDRNHSHLWKPLLHEVATGSLDEGVDALSYLAHARNHGFQFQLGSVIDIDREAKTITIAELRDEKGELLVPERKIAYDTLVMALGSTSNDFNTPGVKENCIFLDNPHQARRFHQEMLNLFLKYSANLGANGKVNIAIVGGGATGVELSAELHNAVKQLHSYGYKGLTNEALNVTLVEAGERILPALPPRISAAAHNELTKLGVRVLTQTMVTSADEGGLHTKDGEYIEADLMVWAAGIKAPDFLKDIGGLETNRINQLVVEPTLQTTRDPDIYAIGDCASCPRPEGGFVPPRAQAAHQMATCAMNNILAQMNGKPLKNYQYKDHGSLVSLSNFSTVGSLMGNLTRGSMMIEGRIARFVYISLYRMHQIALHGYFKTGLMMLVGSINRVIRPRLKLH
- total protein half-life in vivo [1]: 6.51 ± 0.53 h
- total protein half-life in vivo [2]: 6.87 ± 1.2 h
- total protein half-life in vivo [3]: 6.08 ± 0.085 h
- total protein half-life in vivo [4]: 6.332 ± 0.062 h
- total protein half-life in vivo [5]: 5.82 ± 0.36 h
- total protein half-life in vivo [6]: 3.15 ± 0.057 h
- total protein half-life in vivo [8]: 11.78 ± 0.097 h
- total protein half-life in vivo [9]: 6.12 ± 0.28 h
- total protein half-life in vivo [10]: 12.7 ± 0.44 h
- total protein half-life in vivo [11]: 6.07 ± 0.096 h
- total protein half-life in vivo [12]: 14.2 ± 0.38 h

Sequence: MTTQVPPSALLPLNPEQLARLQAATTDLTPTQLAWVSGYFWGVLNQQPAALAATPAPAAEMPGITIISASQTGNARRVAEALRDDLLAAKLNVKLVNAGDYKFKQIASEKLLIVVTSTQGEGEPPEEAVALHKFLFSKKAPKLENTAFAVFSLGDSSYEFFCQSGKDFDSKLAELGGERLLDRVDADVEYQAAASEWRARVVDALKSRAPVAAPSQSVATGAVNEIHTSPYSKDAPLVASLSVNQKITGRNSEKDVRHIEIDLGDSGMRYQPGDALGVWYQNDPALVKELVELLWLKGDEPVTVEGKTLPLNEALQWHFELTVNTANIVENYATLTRSETLLPLVGDKAKLQHYAATTPIVDMVRFSPAQLDAEALINLLRPLTPRLYSIASSQAEVENEVHVTVGVVRYDVEGRARAGGASSFLADRVEEEGEVRVFIEHNDNFRLPANPETPVIMIGPGTGIAPFRAFMQQRAADEAPGKNWLFFGNPHFTEDFLYQVEWQRYVKDGVLTRIDLAWSRDQKEKVYVQDKLREQGAELWRWINDGAHIYVCGDANRMAKDVEQALLEVIAEFGGMDTEAADEFLSELRVERRYQRDVY
- total protein half-life in vivo [1]: 5.2 ± 0.35 h
- total protein half-life in vivo [2]: 3.456 ± 0.027 h
- total protein half-life in vivo [3]: 3.67 ± 0.1 h
- total protein half-life in vivo [4]: 4.31 ± 0.044 h
- total protein half-life in vivo [5]: 3.24 ± 0.067 h
- total protein half-life in vivo [6]: 2.808 ± 0.02 h
- total protein half-life in vivo [7]: 4.99 ± 0.42 h
- total protein half-life in vivo [8]: 8.53 ± 0.79 h
- total protein half-life in vivo [9]: 3.58 ± 0.06 h
- total protein half-life in vivo [10]: 5.215 ± 0.029 h
- total protein half-life in vivo [11]: 4.99 ± 0.36 h
- total protein half-life in vivo [12]: 8.98 ± 1 h

Sequence: MTTSMLNAKLLPTAPSAAVVVVRVVVVVGNAP
- total protein half-life in vivo [1]: 3.54 h
